The numbers were not newly measured in US20030219387A1, “Local delivery of agents for disruption and inhibition of bacterial biofilm for treatment of periodontal disease” (priority 2000, published 2003), which cites them from elsewhere.

For the series, the system named is binding of cells. Particulars: iron-saturated form.

B1: Lactoferrin: iron-binding salivary protein (protein, UniProt P02788 20-710, looked up)
Lactotransferrin: GRRRSVQWCAVSQPEATKCFQWQRNMRKVRGPPVSCIKRDSPIQCIQAIAENRADAVTLDGGFIYEAGLAPYKLRPVAAEVYGTERQPRTHYYAVAVVKKGGSFQLNELQGLKSCHTGLRRTAGWNVPIGTLRPFLNWTGPPEPIEAAVARFFSASCVPGADKGQFPNLCRLCAGTGENKCAFSSQEPYFSYSGAFKCLRDGAGDVAFIRESTVFEDLSDEAERDEYELLCPDNTRKPVDKFKDCHLARVPSHAVVARSVNGKEDAIWNLLRQAQEKFGKDKSPKFQLFGSPSGQKDLLFKDSAIGFSRVPPRIDSGLYLGSGYFTAIQNLRKSEEEVAARRARVVWCAVGEQELRKCNQWSGLSEGSVTCSSASTTEDCIALVLKGEADAMSLDGGYVYTAGKCGLVPVLAENYKSQQSSDPDPNCVDRPVEGYLAVAVVRRSDTSLTWNSVKGKKSCHTAVDRTAGWNIPMGLLFNQTGSCKFDEYFSQSCAPGSDPRSNLCALCIGDEQGENKCVPNSNERYYGYTGAFRCLAENAGDVAFVKDVTVLQNTDGNNNEAWAKDLKLADFALLCLDGKRKPVTEARSCHLAMAPNHAVVSRMDKVERLKQVLLHQQAKFGRNGSDCPDKFCLFQSETKNLLFNDNTECLARLHGKTTYEKYLGPQYVAGITNLKKCSTSPLLEACEFLRK
modifications: iron saturated
With B1, the binding of cells entry is “reduce binding of cells”.
